Experimental findings from patent US20180362629A1 (ZOETIS BELGIUM S A, published 2018) are described below.

The target in assay [1] is human β NGF (R&D Systems catalog #256-GF/CF) (human) (UniProt P01138). The assay is described as follows: cell-based or functional assay.
Assay [2] concerns the target T1, recombinant canine β NGF (canine, UniProt Q29074 110-229 (pig entry)).
T1 construct: also called canine NGF
T1 chain: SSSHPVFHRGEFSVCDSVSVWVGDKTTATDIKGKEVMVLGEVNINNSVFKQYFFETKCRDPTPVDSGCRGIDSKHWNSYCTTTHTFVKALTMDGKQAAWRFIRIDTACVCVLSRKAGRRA
Description: SPR (Biacore T100), antibody captured on goat anti-canine IgG, canine NGF injected. The procedure:
Purified mouse/canine chimeric antibodies and caninized antibodies were analyzed for affinity to canine NGF using a Biacore T100 instrument. Goat anti Canine IgG (Southern Biotech) was immobilized at 5000-10000 RU on a CM5 chip using an amine coupling procedure according to the manufacturer's instructions (Biacore). […] The association rate was monitored for 5 min and the dissociation rate was monitored for 10-20 min. The chip surface was regenerated using 50-75 ul 10 mM glycine pH 1.5 at a flow rate of 50-100 ul/min. Data was analyzed using Biaevaluation T100 software version 2.0.2, software, GE Healthcare Life Sciences (Piscataway, N.J.). Overall affinity parameters established for mouse/canine chimeric antibodies is summarized in Table 22 and for caninized antibodies in Table 23. […] The overall KDs of the mouse/canine anti-NGF mAbs range from about 1300 pM to 1.6 pM. […] The overall KDs of the caninized anti-NGF mAbs range from about 42 pM to 1.2 pM.
(In general: Surface plasmon resonance follows binding to a sensor surface in real time, without labels.)

The target of assay [3] is T1, recombinant canine β NGF. The assay is described as follows: cell-based or functional assay.
For assay [4], the target named is T2, recombinant canine β NGF (canine, UniProt Q29074 110-229 (pig entry)).
T2 chain: T1 chain
The assay is described as follows: cell-based or functional assay.

The target in assay [5] is T3, biotinylated rat β NGF (rat, UniProt P25427 122-241, limits assumed, biotinylated).
T3 construct: also called Biotinylated Rat NGF; rat NGF
The assay is described as follows: capture ELISA; supernatant 125-fold. The procedure:
(§1) The plates were washed three times with wash buffer. The plates were blocked with 200 μl of 2% milk and incubated for 1 hour at room temperature. The plates were washed as above. […] The positive control was crude sera (diluted 1:500 with PBS) isolated from a β NGF immunized mouse and the negative control was hybridoma supernatant derived from a mouse immunized with an antigen other than NGF. The plates were washed and then 50 μl of biotinylated human or rat β NGF at 50 ng/ml was added and incubated for 1 hour at room temperature. The plates were washed. […] The plates were incubated for 30 minutes at room temperature. The plates were washed and then TMB substrate (Invitrogen, catalog #00-2023) was added. The reaction was stopped using 2N H₂SO₄ (VWR, catalog # BDH3500-1). The absorbance at 450 nm was read on a Spectromax 2E plate reader (Molecular Devices); these absorbance readings are shown in Tables 1 and 2. The numerical value indicates binding of mouse anti-NGF antibodies to biotinylated human or rat β NGF.
For orientation: An ELISA detects its analyte on a solid surface through an enzyme-linked reagent.

For assay [6], the target named is T4, biotinylated human β NGF (human, UniProt P01138 122-241, biotinylated).
T4 construct: also called Biotinylated Human NGF; human NGF
The assay is described as follows: capture ELISA; supernatant 125-fold. As to the method: as §1

In assay [7] the target is T3, biotinylated rat β NGF. The assay is described as follows: capture ELISA; supernatant 5-fold. The procedure:
as §1

Assay [8] addresses T4, biotinylated human β NGF. The assay is described as follows: capture ELISA; supernatant 5-fold. The procedure: as §1
Assay [9] concerns the target T3, biotinylated rat β NGF. Description: capture ELISA; supernatant 25-fold. The procedure: as §1
The target in assay [10] is T4, biotinylated human β NGF. The assay is described as follows: capture ELISA; supernatant 25-fold. As to the method:
as §1

Assay [11] addresses T3, biotinylated rat β NGF. The assay is described as follows: capture ELISA; supernatant 625-fold. As to the method: as §1
The target of assay [12] is T4, biotinylated human β NGF. The assay is described as follows: capture ELISA; supernatant 625-fold. The procedure:
as §1

Assay [13] deals with T1, recombinant canine β NGF. The assay is described as follows: SPR (Biacore), mAb captured on goat anti-mouse IgG Fc, canine NGF injected; Expt 1. The procedure: (§2) A biomolecular protein interaction analysis was used to evaluate the binding kinetics of the interaction between the purified anti-NGF hybridoma antibodies and recombinant canine β NGF. The antibodies were captured using a goat anti-mouse IgG FC (10000 RU) surface which was directly immobilized to a CM5 chip using an amine coupling procedure according to the manufacturer's instructions (Biacore). A sample size of 5 μl of antibody at a concentration of 1 μg/ml was captured at 10 μl minute. Recombinant canine NGF was used as the antigen. Canine NGF was injected at 75 μl/min (concentration range: 5-0.039 nM) for mouse antibodies. The association rate was monitored for 3.3 minutes and the dissociation rate was monitored for 10 minutes. Aliquots of canine NGF were also simultaneously injected over a reference reaction CM surface to record any nonspecific binding background. The instrument sensitivity for on-rate is I×IO⁷, such that any on-rate that is faster than I×IO⁷ may not be accurately measured; the instrument sensitivity for off-rate is […], such that any off-rate that is slower than 1×10⁻⁶ may not be accurately measured. Therefore, an on-rate that is faster than 1×10⁷ is recorded as >1×10⁷ and an off-rate that is slower than 1×10⁻⁶ is recorded as <1×10⁻⁶.

For assay [14], the target named is T1, recombinant canine β NGF. The assay is described as follows: cell-based or functional assay.
Assay [15] concerns the target T1, recombinant canine β NGF. The assay is described as follows: direct ELISA, canine NGF coated at 1 µg/ml, mAb at 10 µg/ml. The procedure:
(§3) To determine if purified mouse anti-NGF mAbs bind to canine β NGF, ELISA plates were coated with 50 μl/well of canine NGF (Abbott Laboratories) at 1 μg/ml in PBS and incubated over night at 4° C. The plates were washed three times with PBS+Tween buffer. The plates were blocked with 200 μl/well of 2% milk in PBS for 1 hour at room temperature. The plates were washed three times as above. Purified antibodies were diluted to 0.4, 2, or 10 μg/ml. 50 μl of each concentration of purified antibody was added to the plates. The plates were incubated for 1 hour at room temperature. The plates were washed. 50 μl of a 5000-fold diluted goat anti-mouse IgG Fc-HRP (Thermo, catalog #31439) was added. The plates were incubated for 1 hour at room temperature. 50 μl of TMB (Invitrogen, catalog #00-2023) was added and the reaction was stopped using 2N H₂SO₄ (VWR, catalog # BDH3500-1). The absorbance at 450 nm was read on a Spectromax 2E plate reader (Molecular Devices). The results are shown in Table 9, and the numerical value indicates binding of mouse anti-NGF antibodies to canine β NGF.

Assay [16] has as its target T1, recombinant canine β NGF. Description: direct ELISA, canine NGF coated at 1 µg/ml, mAb at 2 µg/ml. The procedure: as §3
For assay [17], the target named is T1, recombinant canine β NGF. Description: cell-based or functional assay.
In assay [18] the target is T1, recombinant canine β NGF. Description: SPR (Biacore), mAb captured on goat anti-mouse IgG Fc, canine NGF injected; Expt 2. As to the method: as §2
In assay [19] the target is T1, recombinant canine β NGF. The assay is described as follows: direct ELISA, canine NGF coated at 1 µg/ml, mAb at 0.4 µg/ml. The procedure: as §3
Assay [20] concerns the target T1, recombinant canine β NGF. Description: SPR (Biacore), mAb captured on goat anti-mouse IgG Fc, canine NGF injected; Average. The procedure:
as §2

Numbering of substitutions follows the chain as printed. Several values for one entry are separate records, joined by “and”; a condition that tells them apart may be missing. Identical values can stand only once. Like-named read-outs stand apart in the source and are kept apart here. Where only a bound is given, the exact number is not on record here.

Chain of human β NGF (R&D Systems catalog #256-GF/CF) (human) (P01138 122-241 limits assumed): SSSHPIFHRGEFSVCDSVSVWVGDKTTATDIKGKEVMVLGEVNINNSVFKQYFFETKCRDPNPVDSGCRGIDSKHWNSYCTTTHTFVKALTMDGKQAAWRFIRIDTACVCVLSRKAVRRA
T4 sequence (P01138 122-241 limits assumed): as above
T3 sequence (P25427 122-241 limits assumed): as the sequence (P01138 122-241 limits assumed) above, with S3T, I6V, R9M, M37T, D60A, D65E, M92T, G94D, V117A, A120G counted along it

On to Unrelated hybridoma (antibody), for which, in assay [1], the PathHunter % of max signal, supernatant 1000-fold is 136% and 144%; the PathHunter % of max signal, supernatant 5000-fold was 126% and 132%; the PathHunter % of max signal, supernatant 10000-fold was 138% and 137%.

B1: Mu82 Canine IgG1/k Chimera (antibody, V domains shown)
VH: QVQLKESGPGLVAPSQSLSITCTVSGFSLTGYNINWVRQPPGKGLEWLGMIWGYGDTDYNSALKSRLSISKDNSKSQVFLKMNSLQTDDTARYYCARDHYGGNDWYFDVWGTGTTVTVSS
VL: DIQMTQTTSSLSASLGDRVTITCRASQDITNYLNWYQQKPDGTVKLLIYYTSRLHSGVPSRFSGSGSGTDYSLTISNLDQEDIATYFCQQGKTLPRTFGGGTKLEIKR
notes: The exact junction was not checked; also called PR-1290658; lot 1785732
Consider B1, for which, in the assay with recombinant canine β NGF [2], the Kd was 0.0016 nM and the koff is 1.4e-05 s⁻¹. For the same molecule, in the assay with recombinant canine β NGF [3], the “IC50, canine NGF-induced TF-1 cell proliferation (70 pM canine NGF)” value (“IC50 … (70 pM canine NGF)” for short) came to 7 pM.

B2: Mu73 Canine IgG1/k Chimera (antibody, V domains shown)
VH: QVQLQQPGAELVKPGASVKLSCKASGYTFTNYWMHWVKQRPGQGLEWIGRIDPYGGGTKHNEKFKRKATVTADKSSSTAYILLSSLTSEDSAVYYCTRSGYDYYFDVWGTGTTVTVSS
VL: DIQMTQSPASLSASVGETVTVTCRASENIYSFLAWHQQKQGKSPQLLVYNANTLAEGVPSRFSGSGSGTQFSLKINSLQPEDFGSYYCQHHFGTPFTFGSGTKLEIKR
notes: also called PR-1290654; lot 1785658
With B2, in the assay with recombinant canine β NGF [2], the Kd came out at 0.014 nM and the koff is 9e-05 s⁻¹. Moreover, in the assay with recombinant canine β NGF [3], the “IC50 … (70 pM canine NGF)” value was determined as 8 pM.

B3: PR-1254980 (antibody, mouse IgG1, V domains shown)
VH: EVQLQQSGAELVKPGASVKLSCTASGFNIKDTYIYWVKQRPEQGLEWIGRIDPANGNTIYASKFQGKATITADTSSNTAYMQLSSLTSGDTAVYYCAGYGYYAYWGQGTTLTVSS
VL: DVVLTQTPLSLPVNIGDQASISCKSTKSLLNGDGFTYLDWYLQKPGQSPQLLIYLVSNRFSGVPDRFSGSGSGTDFTLKISRVEAEDLGVYYCFESNYLFTFGSGTKLEMKR
notes: also called 23F1; ML129-23F1.4G3
For B3, the “PathHunter IC50 (441 pM canine NGF)” value with recombinant canine β NGF [4] was less than 1 nM. The “SureFire cellular pERK IC50 (128 pM canine NGF)” value in the assay with recombinant canine β NGF [4] is less than 1 nM. Also, the “absorbance at 450 nm” value in the assay with biotinylated rat β NGF [5] is 0.737; with biotinylated human β NGF [6], 0.979; with biotinylated rat β NGF [7], 0.764; with biotinylated human β NGF [8], 1.14; with biotinylated rat β NGF [9], 0.767; with biotinylated human β NGF [10] it was 1.17. Also, the entries for the “absorbance at 450 nm” value in the assay with biotinylated rat β NGF [11] and with biotinylated human β NGF [12] were 0.528 and 0.696, respectively.

B4: Mu77 Canine IgG1/k Chimera (antibody, V domains shown)
VH: B3 VH with T69S
VL: B3 VL
notes: also called PR-1290656; lot 1785699
As for B4, in the assay with recombinant canine β NGF [2], the Kd is 0.021 nM and the koff is 0.00019 s⁻¹. Moreover, the “IC50 … (70 pM canine NGF)” value with recombinant canine β NGF [3] came out at 28 pM.

B5: PR-1254981 (antibody, mouse IgG1, V domains shown)
VH: EVQLVESGGGAVKPGGSLTLSCAASGFTFSNHYMYWVRQTPEKRLEWVASISDGGAYTFYPDTVKGRFTISRDNVNNNLYLQMRHLKSEDTAMYYCTREESANNGFAFWGQGTLVTVSA
VL: DVLMTQTPLSLPVSLGDQASISCRSSQSILHSNGNTYLEWYLQKPGQSPNLLIYRVSNRFSGVPDRFSGSGSGTDFTLKISRVEAEDLGVYYCFQGAHVPFTFGSGTKLEIKR
notes: also called 14A9; ML130-14A9.5B12
With B5, the Kd was found to be 0.0147 nM with recombinant canine β NGF [13], 0.0187 nM with recombinant canine β NGF [18] and 0.0167 nM with recombinant canine β NGF [20]. For the same molecule, the results for the koff in the assay with recombinant canine β NGF [13], with recombinant canine β NGF [18] and with recombinant canine β NGF [20] were 0.000127 s⁻¹, 0.00014 s⁻¹ and 0.000134 s⁻¹, respectively. For the same molecule, the figures for the kon in the assay with recombinant canine β NGF [13], with recombinant canine β NGF [18] and in the assay with recombinant canine β NGF [20] were 8.67e+06 M⁻¹ s⁻¹, 7.48e+06 M⁻¹ s⁻¹ and 8.08e+06 M⁻¹ s⁻¹, respectively. Moreover, the “IC50 … (70 pM canine NGF)” value with recombinant canine β NGF [14] was found to be 46 pM. Also, the results for the “absorbance at 450 nm” value in the assay with recombinant canine β NGF [15], in the assay with recombinant canine β NGF [16] and in the assay with recombinant canine β NGF [19] were 0.61 A450, 0.458 A450 and 0.229 A450, respectively. In addition, the “PathHunter IC50 (441 pM canine NGF)” value with recombinant canine β NGF [17] came out at 0.279 nM. For the same molecule, in the assay with recombinant canine β NGF [17], the “SureFire pERK IC50 (128 pM canine β NGF)” value was determined as 21.4 pM.

B6: Mu81 Canine IgG1/k Chimera (antibody, V domains shown)
VH: B5 VH
VL: B5 VL
notes: also called PR-1290657; lot 1778832
B6: in the assay with recombinant canine β NGF [2], the Kd is 0.082 nM and the koff was 0.00035 s⁻¹. For the same molecule, the “IC50 … (70 pM canine NGF)” value in the assay with recombinant canine β NGF [3] was found to be 12 pM.

For orientation: Kd means a measure of binding affinity in units of concentration. Usually koff stands for a measure of how fast the partners let go of each other. By kon is commonly meant a measure of how fast the partners come together.
